From US10155985B2, “Evaluation of eosinophilic esophagitis” (CHILDREN'S HOSPITAL MEDICAL CENTER, priority 2004, dated 2018)

B1: SEQ_ID_#72 (nucleic acid, listed as Homo sapiens)
DNA: AGCTATTCATTCATTTAATGAATATTTTTAATATCGATGTACATGCCAGATAATGAAGAGGAGGGGTGTTACAGAAGTATACAACAAATTGTATCATTCAGCAATCCTTTATCCTAGTGGGGAAGATGACTATACAGATAATTACAACTTAAGGCCATTTTTTGGATAAGAAACATAAAAGTGGTACAAACAAAAGTTCAAGGAGGCAAAGACCACTTCTTATTCTGGTTATATGGATAGCCTTCATGGAGAAGGCTTCATGACAGTTGGGTTGGGTCTTGAAGATGTCTACAGGTAGAGCCTCAGAAAAAGGAATATGAAACATAGGGAACAGTAGGAGGAGGGCAGCTTTAGTGACTGGCTCGGTTATACTAGAGCATTGGGATTGTAGAGGAGAATCATGATTGATTAAGGCTATATAGGGCAGTTAGGGCCAGATACTGGGGGAATTTGAATATCAGACTGTTATTTGATGAACAGTGGGAGCAGCTGAAGGTTTTTTTTTTTTTTTTAAAAAAAACAACCTTATTAAGGTAGTG
B2: SEQ_ID_#65 (nucleic acid, listed as Homo sapiens)
DNA: ATGAAGGCCAACTACAGCGCAGAGGAGCGCTTTCTCCTGCTGGGTTTCTCCGACTGGCCTTCCCTGCAGCCGGTCCTCTTCGCCCTTGTCCTCCTGTGCTACCTCCTGACCTTGACGGGCAACTCGGCGCTGGTGCTGCTGGCGGTGCGCGACCCGCGCCTGCACACGCCCATGTACTACTTCCTCTGCCACCTGGCCTTGGTAGACGCGGGCTTCACTACTAGCGTGGTGCCGCCGCTGCTGGCCAACCTGCGCGGACCAGCGCTCTGGCTGCCGCGCAGCCACTGCACGGCCCAGCTGTGCGCATCGCTGGCTCTGGGTTCCGCCGAATGCGTCCTCCTGGCGGTGATGGCTCTGGACCGCGCGGCCGCAGTGTGCCGCCCGCTGCGCTATGCGGGGCTCGTCTCCCCGCGCCTATGTCGCACGCTGGCCAGCGCCTCCTGGCTAAGTGGCCTCACCAACTCGGTTGCGCAAACCGCGCTCCTGGCTGAGCGGCCGCTGTGCGCGCCCCGCCTGCTGGACCACTTCATCTGTGAGCTGCCGGCGTTGCTCAAGCTGGCCTGCGGAGGCGACGGAGACACTACCGAGAACCAGATGTTCGCCGCCCGCGTGGTCATCCTGCTGCTGCCGTTTGCCGTCATCCTGGCCTCCTACGGTGCCGTGGCCCGAGCTGTCTGTTGCATGCGGTTCAGCGGAGGCCGGAGGAGGGCGGTGGGCACGTGTGGGTCCCACCTGACAGCCGTCTGCCTGTTCTACGGCTCGGCCATCTACACCTACCTGCAGCCCGCGCAGCGCTACAACCAGGCACGGGGCAAGTTCGTATCGCTCTTCTACACCGTGGTCACACCTGCTCTCAACCCGCTCATCTACACCCTCAGGAATAAGAAAGTGAAGGGGGCAGCGAGGAGGCTGCTGCGGAGTCTGGGGAGAGGCCAGGCTGGGCAGTGA
B3: SEQ_ID_#787 (nucleic acid, listed as Homo sapiens)
DNA: TTTGGTACAGAATGAAACCGTTCTCTTTGAAGAACTGCATGTTTCCCCCAGTCATTTTTGTCCTGGGGGAGTCAAGTGTTTTTACGGACCCTTGAAGCTTGAGGACACTCTGGCATCACCCATTGTTGGGGTGACTTTCTGGTGATTATCAGTGAGCAAACTTCAAGGCCAGCTCCGATTAGGAAAATCTGCCAAGTGTGAGTTTCCTTGGAGCTAGGACTGGGCAGAGACCCCTGGTCCTTGGTCCGTAGGGAAGCTGGGGGATTTGGGGGGTAAGTAATGAGATCATGTCTGCAGAGGCCCCCAGCCTCTTGGAAGAAGATTCCGCTGTAATTTCTTGGAAAAAGCCAACTCCTTCCAGCCCTTTCTGCTCACACCATCTCAGTTTTCCTGGCTGG
B4: S100P (nucleic acid, listed as Homo sapiens)
DNA: TGAGGCTGCCTTATAAAGCACCAAGAGGCTGCCAGTGGGACATTTTCTCGGCCCTGCCAGCCCCCAGGAGGAAGGTGGGTCTGAATCTAGCACCATGACGGAACTAGAGACAGCCATGGGCATGATCATAGACGTCTTTTCCCGATATTCGGGCAGCGAGGGCAGCACGCAGACCCTGACCAAGGGGGAGCTCAAGGTGCTGATGGAGAAGGAGCTACCAGGCTTCCTGCAGAGTGGAAAAGACAAGGATGCCGTGGATAAATTGCTCAAGGACCTGGACGCCAATGGAGATGCCCAGGTGGACTTCAGTGAGTTCATCGTGTTCGTGGCTGCAATCACGTCTGCCTGTCACAAGTACTTTGAGAAGGCAGGACTCAAATGATGCCCTGGAGATGTCACAGATTCCTGGCAGAGCCATGGTCCCAGGCTTCCCAAAAGTGTTTGTTGGCAATTATTCCCCTAGGCTGAGCCTGCTCATGTACCTCTGATTAATAAATGCTTATGAAATGA
B5: SEQ_ID_#808 (nucleic acid, listed as Homo sapiens)
DNA: TTTCACTATAGAAAACCTTTAATAACAACTTCAGATTTACATGACCCTTCTGGTGCTCAGAACACTATGGATTAACACACACACTGGAAAGATACAGACACAGGAATCTGCTGCATTACCCCAAATGGCAAAGTCTTGACTGGGGCTTCAGCTCCTTTCCCAATCCAAAATTGGCACCTTTTTCCATGGAAATTCAAACTGCATCTCTAAATGATGGGGTACATGAACTGTCTGTTTCAAAAGTATTTAAAAACAAACAGGAAGTACAGCTTCCATTTCATTAAGAAAACACCACCACAAGACATGGTGCAGTATCTACTAGCTTAAAGTTTATCACTCCATTAGGGCTTATTGACAGCAGAAATGTGAATGTAGTAATGTAGAAATAAGGAAGAGAGCACTTAAGAAAAAAACAGTACAGAAGTTTTAGAGTTTTTTAAACTTTAATAATATGCTTGACTAATATAGTCAAAAGTGATATGCACTCGTGAAATTAACCCATTTTCTGAAGTCCAAATTAGCTATTAAAGTCTTTTTTTACCAAAAACATATAAGGATTTAGTACACTATATAGATTACATAGCTTTCCT
B6: SEQ_ID_#807 (nucleic acid, listed as Homo sapiens)
DNA: TTAGCATTTTTAAATTTTATTATGACTTCATTTGTTTAAATATATATATATATATATATATATATATTTATTTATAGCTCTATGTGCCCACCGCCCCCGGCCCCCTCCCCGGCCCCTAGTTTTTCCCCCTGGCTTTCTGTCTAGTGGCTGTGTAGGGCAGAACCGTCTGCGTGCTCTTGTCTGACACTGTCTGGGTGCTGCTGTTCCTCGTGACCCTTCGAGTCTGTTCAGGGGCCAAGGTAGAGCCTGAGTGGCGGCTGGTCAGTGGAGAGCGCCGTGACTTGTAGGGGGCTGGGGAGGGCTTGTGGGGGCCTGCATGGGCCTCTGTATGGGCAGGCTCAGGGGGCAAGCCCACTTCTTCCTCCTCCACCTCCTGCTCACCGTCCCCCTCCTCATCGTC
B7: SEQ_ID_#783 (nucleic acid, listed as Homo sapiens)
DNA: TATCACGCACAAATTGCAATTACTTCACACTCACGATAACCCATTAATCTGTGAAGGATTAATCTGTTCATGAAGGCAGGGCCCTCATGATGGAATCACATCTTAAAGCCCCTACGTCTGAGTACTGTTACATTGGGGATTTAGTTTTAATATGATTTTCAGAGCAGAAAAACATTCAAACCATAGCAATATGTATTGAATATCTAGATCATTTCCAAATAAGATATTAATATGATACTGAAACATTTATTGCTGAACATAAATTTAGAACTTACTTTGCCTACCTATTACAGAAGAACAAAAGATATTTGGGCCTATTAAACCTTTCCTCTGCCATTTCCTGTCCTGTGTCATAGGACTAGGAATCGTGTTTCTAGAAGGTATGAAATCGTGTGCTTGCAAACTTGGAAGAAAACAGTTCATGACTGCATACCTTCTAGTTCTCTAGTGTTCACTGGAAATTAAAGACACTAAAAGTTAACAATTCTTATTAATTAATCATATTAATGTAATTGGAATTTCTAGAAATATTAGGGGAAGCAACTTTATACGCAAAGCATAACAGAAAAATAAGGTGTATTTTTTCTTTGAAACCTATGAAATATACTGGCCAGGCACGGTGGCTCATGCTTGTAATCCCAGCACTTTGGGAAGCTGAAGCGGTGGATCACCTGAGCTCAGGAGTCCGAGACCAGCTGGCCACATGTTGAACCATGTCTCTACTAAAATACAAAATTAGCAGTCATGTGCGGTGCTGTACCCCAGTACTCGGAGCTGGGGGGAATCGTGACCGGGTGGGTGCTGACCAAACCTGGCCCAGCGGGAAAGAGACTTTAAAACAATGGACCAAACTGCACAAGCTCTGCCACACTTGTCGAACCCGTGGACGCACAAGAAAAGGGCATCTGGACCTGGAATAACGAAACGACACATCT

The molecules below were run on EE transcriptome (assay: Genome-wide microarray transcript profiling of esophageal biopsies, EE patients vs normal individuals (EE transcriptome)). Conditions: transcript level in esophageal biopsies of EE patients (n=76) compared to normal individuals (n=13); Affymetrix Human Genome U133 plus 2; p<0.01.
Method: Esophageal tissue obtained from patients previously diagnosed with EE was analyzed. Diagnosis was based on analysis of excised tissue from endoscopic biopsy. Tissues from patients with EE, as well as patients not having EE (controls) were subjected to genome-wide microarray transcript profiling (Affymetrix GeneChip). All work was performed at the Core facility at Children's Hospital Medical Center (Cincinnati Ohio).
Briefly, RNA quality was first assessed using the Agilent bioanaiyzer (Agilent Technologies, Palo Alto Calif.). Only mRNA having a ratio of 28S/18S between 1.3 and 2 were subsequently used. RNA was converted to cDNA with Superscript choice for cDNA synthesis (Invitrogen, Carlsbad Calif.) and subsequently converted to biotinylated cRNA with Enzo High Yield RNA Transcript labeling kit (Enzo Diagnostics, Farmingdale N.Y.). After hybridization to the GeneChip (Affymetrix, Santa Clara Calif.), the chips were automatically washed and stained with streptavidin-phycoerythrin using a fluidics system. The chips were scanned with a Hewlett Packard GeneArray Scanner. Over 30,000 unique genes were screened.
Levels of gene transcripts were determined from data image files, using algorithms in the Microarray Analysis Suite software (Affymetrix). Levels from chip to chip were compared by global scaling. Each gene was typically represented by a probe set of 16 to 20 probe pairs. Each probe pair consisted of a perfect match oligonucleotide and a mismatch oligonucleotide that contained a one base mismatch at a central position. Two measures of gene expression were used, absolute call and average difference. Absolute call is a qualitative measure in which each gene is assigned a call of present, marginal or absent, based on the hybridization of the RNA to the probe set. Average difference is a quantitative measure of the level of gene expression, calculated by taking the difference between […] of every probe pair and averaging the differences over the entire probe set. Data were normalized and an EE transcriptome gene list was created with results having p<0.01 (Welch t-test with or without false rate discovery) and ≥1.5-fold change.
For evaluation of EE using clinical and/or physical assessment, biopsy tissues (obtained from the distal esophagus during routine endoscopy) were submerged in formalin for routine pathological analysis with hematoxylin and eosin staining. Diagnosis was established based on the maximum eosinophil count per high power field (hpf) and basal layer expansion according to method known in the art (e.g., established criteria in Rothenberg et al., Pathogenesis and clinical features of eosinophilic esophagitis. J Allergy Clin Immunol 108 (2001) 891; Attwood et al., Esophageal eosinophilia with dysphagia. A distinct clinicopathologic syndrome. Dig Dis Sci 38 (1993)109; Fox et al., Eosinophilic esophagitis: its not just kid's stuff. Gastrointest Endosc 56 (2002) 26, each of which is expressly incorporated by reference herein in its entirety. Normal individuals (NL), n=13, served as a control and were defined as having 0 eosinophils/hpf and no basal layer expansion. Individuals with EE (n=76) were defined as having >24 eosinophils/hpf and extensive basal layer hyperplasia (expansion to about >⅓ of epithelium).
The data were analyzed by cluster analysis and ordered (standard correlation (A) and distance (B)) using Genespring software. […] Each column represented a separate individual and each line a gene. RNA from each patient was subjected to chip analysis using Affymetrix Human Genome U133 GeneChip plus 2.

Molecule | Fold Change
B1 | 4.374
B2 | 4.547

Same assay, conditions: transcript level in esophageal biopsies of EE patients compared to normal individuals (NL); Affymetrix Human Genome U133 plus 2; p<0.01; >1 up-regulated, <1 down-regulated

Molecule | Fold Change
B3 | 1.528
B4 | 1.52
B5 | 1.513
B6 | 1.514
B7 | 1.53
